The series has as its system Escherichia coli TOP10. Description: shrunken log2 fold change of peptide-encoding DNA abundance (4.5 h post-induction vs induction); higher = less antimicrobial activity (less host growth inhibition). The conditions noted are these: time post-induction: 4.5 h; library: site-saturation at positions 5, 18, 19, 20.
In the case of RRIRQRPPRLPRPRPRPRQGPRP, the “shrunken log2 fold change” value amounted to 0.0279.
In the case of RRIRRRPPRLPRPRPRPDTYPRP, the “shrunken log2 fold change” value was -0.193.
Next, RRIRARPPRLPRPRPRPLGSPRP: 0.471.
Next, RRIRARPPRLPRPRPRPEMEPRP: 1.3; RRIRHRPPRLPRPRPRPRGLPRP: 0.369; RRIRHRPPRLPRPRPRPTPQPRP: 0.541.
For the sequence RRIRSRPPRLPRPRPRPEHRPRP, the “shrunken log2 fold change” value is -0.00155.
Next, RRIRYRPPRLPRPRPRPLQYPRP: -0.624; RRIRLRPPRLPRPRPRPIFLPRP: -0.333; RRIRGRPPRLPRPRPRPANIPRP: -0.0276.
With RRIRGRPPRLPRPRPRPDAFPRP the figure was 1.87.
On to RRIRIRPPRLPRPRPRPCTMPRP, for which the “shrunken log2 fold change” value is -0.0242.
For the sequence RRIRFRPPRLPRPRPRPCMNPRP, the “shrunken log2 fold change” value worked out at 0.0346.
Consider RRIRQRPPRLPRPRPRPYMPPRP, for which the “shrunken log2 fold change” value is -0.0463.
With RRIRPRPPRLPRPRPRPFEIPRP the figure was -0.0325; with RRIRGRPPRLPRPRPRPYMSPRP, 0.0366.
Next, RRIRQRPPRLPRPRPRPGEAPRP: 0.271; RRIRDRPPRLPRPRPRPKHCPRP: 0.0694.
With RRIRCRPPRLPRPRPRPRDKPRP the figure was 0.0174; with RRIRERPPRLPRPRPRPVTGPRP, -0.0257; with RRIRKRPPRLPRPRPRPPQQPRP, 0.346.
Regarding RRIRRRPPRLPRPRPRPYDVPRP, the “shrunken log2 fold change” value is -0.0964.
Regarding RRIRNRPPRLPRPRPRPAYFPRP, the “shrunken log2 fold change” value is -0.175.
With RRIRSRPPRLPRPRPRPPWDPRP the figure was 0.409; with RRIRMRPPRLPRPRPRPMGKPRP, 0.0275; with RRIRPRPPRLPRPRPRPDMQPRP, -0.21.
With RRIRERPPRLPRPRPRPVEHPRP the figure was -0.0102.
RRIRYRPPRLPRPRPRPQFHPRP: the “shrunken log2 fold change” value was -1.09.
With RRIRARPPRLPRPRPRPYQTPRP the figure was 0.00502; with RRIRRRPPRLPRPRPRPVNGPRP, 0.0578; with RRIRIRPPRLPRPRPRPVWAPRP, -0.0187.
With RRIRNRPPRLPRPRPRPGCAPRP the figure was 0.426; with RRIRMRPPRLPRPRPRPVCIPRP, -0.0455; with RRIRDRPPRLPRPRPRPQDNPRP, -0.0684.
As for RRIRTRPPRLPRPRPRPTIMPRP, the “shrunken log2 fold change” value is -0.597.
Next, RRIRTRPPRLPRPRPRPQSNPRP: -0.581.
Take RRIRLRPPRLPRPRPRPEIRPRP: the “shrunken log2 fold change” value was -0.0685.
With RRIRDRPPRLPRPRPRPYTKPRP the figure was -1.06; with RRIRCRPPRLPRPRPRPPLDPRP, 0.616; with RRIRPRPPRLPRPRPRPTRKPRP, 0.483.
Next, RRIRVRPPRLPRPRPRPFYKPRP: -0.502.
For RRIRRRPPRLPRPRPRPLYWPRP, the “shrunken log2 fold change” value was 0.0153.
With RRIRRRPPRLPRPRPRPIIQPRP the figure was -0.342; with RRIRSRPPRLPRPRPRPEMKPRP, 0.114.
Turning to RRIRMRPPRLPRPRPRPVQWPRP, the “shrunken log2 fold change” value came out at 0.155.
With RRIRDRPPRLPRPRPRPSVDPRP the figure was 0.0621.
With RRIRARPPRLPRPRPRPGQVPRP the figure was 0.402.
Regarding RRIRHRPPRLPRPRPRPFLNPRP, the “shrunken log2 fold change” value is -0.169.
Turning to RRIRCRPPRLPRPRPRPPKAPRP, the “shrunken log2 fold change” value is -0.112.
Next, RRIRIRPPRLPRPRPRPLWFPRP: -0.257; RRIRIRPPRLPRPRPRPDPNPRP: -0.546; RRIRFRPPRLPRPRPRPKGMPRP: -0.243.
Next, RRIRVRPPRLPRPRPRPVYTPRP: -0.324.
With RRIRWRPPRLPRPRPRPSEMPRP the figure was -0.148; with RRIRERPPRLPRPRPRPWFMPRP, -0.688; with RRIRWRPPRLPRPRPRPKGVPRP, 0.109.
On to RRIRHRPPRLPRPRPRPTYKPRP, for which the “shrunken log2 fold change” value was -0.333.
Next, RRIRNRPPRLPRPRPRPMLLPRP: -0.0366; RRIRGRPPRLPRPRPRPLKLPRP: 0.164.
For RRIRVRPPRLPRPRPRPFWFPRP, the “shrunken log2 fold change” value was found to be 0.149.
Take RRIRPRPPRLPRPRPRPFWSPRP: the “shrunken log2 fold change” value was -0.143.
Consider RRIRPRPPRLPRPRPRPHEYPRP, for which the “shrunken log2 fold change” value is -0.25.
On to RRIRSRPPRLPRPRPRPCMMPRP, for which the “shrunken log2 fold change” value stood at 0.0683.
With RRIRSRPPRLPRPRPRPPPSPRP the figure was 0.785; with RRIRRRPPRLPRPRPRPSFGPRP, 0.365.
For the sequence RRIRPRPPRLPRPRPRPNAKPRP, the “shrunken log2 fold change” value was -0.0129.
Next, RRIRVRPPRLPRPRPRPKPHPRP: 0.264; RRIRVRPPRLPRPRPRPTEFPRP: -0.143.
With RRIRGRPPRLPRPRPRPDRLPRP the figure was -0.00118; with RRIRGRPPRLPRPRPRPQNPPRP, 0.0251; with RRIRGRPPRLPRPRPRPGMIPRP, 0.309.
Next, RRIRTRPPRLPRPRPRPIWCPRP: -0.0116.
For the sequence RRIRCRPPRLPRPRPRPLKPPRP, the “shrunken log2 fold change” value is -0.225.
Next, RRIRLRPPRLPRPRPRPWPQPRP: 0.244.
Next, RRIRKRPPRLPRPRPRPWHNPRP: -0.124.
Next, RRIRLRPPRLPRPRPRPGPRPRP: 0.693; RRIRDRPPRLPRPRPRPCIHPRP: -0.233.
On to RRIRNRPPRLPRPRPRPVAYPRP, for which the “shrunken log2 fold change” value was 0.0201.
In the case of RRIRFRPPRLPRPRPRPVDDPRP, the “shrunken log2 fold change” value is -0.601.
With RRIRLRPPRLPRPRPRPIEQPRP the figure was -0.0092; with RRIRMRPPRLPRPRPRPVCQPRP, 0.13.
With RRIRWRPPRLPRPRPRPKALPRP the figure was 0.237; with RRIRERPPRLPRPRPRPNTIPRP, -0.45; with RRIRPRPPRLPRPRPRPLVNPRP, -0.549.
With RRIRIRPPRLPRPRPRPNIEPRP the figure was -0.0607.
Take RRIRNRPPRLPRPRPRPHWWPRP: the “shrunken log2 fold change” value was determined as 0.127.
With RRIRRRPPRLPRPRPRPTAGPRP the figure was 0.109.
With RRIRYRPPRLPRPRPRPTSYPRP the figure was -0.0849; with RRIRRRPPRLPRPRPRPRCKPRP, 0.358.
Turning to RRIRGRPPRLPRPRPRPYEWPRP, the “shrunken log2 fold change” value was -0.027.
Take RRIRGRPPRLPRPRPRPNMKPRP: the “shrunken log2 fold change” value came out at 0.275.

Source of the values: the supplement of paper PMC9112550, “Optimization of the antimicrobial peptide Bac7 by deep mutational scanning” (BMC Biology, 2022).
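Further: peptides expressed intracellularly from a pBAD plasmid library in pooled LB shake-flask culture, induced with 0.3% L-arabinose, DNA abundance read by NGS, three biological replicates, DESeq2 with apeglm shrinkage.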
